{"source": "paper PMC10465538", "binders": {"B1": {"name": "CglPafA K106R, K172R, K302R (proteasome accessory factor A from Corynebacterium glutamicum) (enzyme)", "chain": "STVESALTRRIMGIETEYGLTFVDGDSKKLRPDEIARRMFRPIVEKYSSSNIFIPNGSRLYLDVGSHPEYATAECDNLTQLINFEKAGDVIADRMAVDAEESLAREDIAGQVYLFKNNVDSVGNSYGCHENYLVGRSMPLKALGKRLMPFLITRQLICGAGRIHHPNPLDRGESFPLGYCISQRSDHVWEGVSSATTRSRPIINTRDEPHADSHSYRRLHVIVGDANMAEPSIALKVGSTLLVLEMIEADFGLPSLELANDIASIREISRDATGSTLLSLKDGTTMTALQIQQVVFEHASRWLEQRPEPEFSGTSNTEMARVLDLWGRMLKAIESGDFSEVDTEIDWVIKKKLIDRFIQRGNLGLDDPKLAQVDLTYHDIRPGRGLFSVLQSRGMIKRWTTDEAILAAVDTAPDTTRAHLRGRILKAADTLGVPVTVDWMRHKVNRPEPQSVELGDPFSAVNSEVDQLIEYMTVHAESYRS"}, "B2": {"name": "PafA K444A (enzyme)", "chain": "STVESALTRRIMGIETEYGLTFVDGDSKKLRPDEIARRMFRPIVEKYSSSNIFIPNGSRLYLDVGSHPEYATAECDNLTQLINFEKAGDVIADRMAVDAEESLAREDIAGQVYLFKNNVDSVGNSYGCHENYLVGRSMPLKALGKRLMPFLITRQLICGAGRIHHPNPLDRGESFPLGYCISQRSDHVWEGVSSATTRSRPIINTRDEPHADSHSYRRLHVIVGDANMAEPSIALKVGSTLLVLEMIEADFGLPSLELANDIASIREISRDATGSTLLSLKDGTTMTALQIQQVVFEHASRWLEQRPEPEFSGTSNTEMARVLDLWGRMLKAIESGDFSEVDTEIDWVIKKKLIDRFIQRGNLGLDDPKLAQVDLTYHDIRPGRGLFSVLQSRGMIKRWTTDEAILAAVDTAPDTTRAHLRGRILKAADTLGVPVTVDWMRHAVNRPEPQSVELGDPFSAVNSEVDQLIEYMTVHAESYRS"}, "B3": {"name": "PafA site 3 alanine double mutant (R442A, K444A) (enzyme)", "chain": "STVESALTRRIMGIETEYGLTFVDGDSKKLRPDEIARRMFRPIVEKYSSSNIFIPNGSRLYLDVGSHPEYATAECDNLTQLINFEKAGDVIADRMAVDAEESLAREDIAGQVYLFKNNVDSVGNSYGCHENYLVGRSMPLKALGKRLMPFLITRQLICGAGRIHHPNPLDRGESFPLGYCISQRSDHVWEGVSSATTRSRPIINTRDEPHADSHSYRRLHVIVGDANMAEPSIALKVGSTLLVLEMIEADFGLPSLELANDIASIREISRDATGSTLLSLKDGTTMTALQIQQVVFEHASRWLEQRPEPEFSGTSNTEMARVLDLWGRMLKAIESGDFSEVDTEIDWVIKKKLIDRFIQRGNLGLDDPKLAQVDLTYHDIRPGRGLFSVLQSRGMIKRWTTDEAILAAVDTAPDTTRAHLRGRILKAADTLGVPVTVDWMAHAVNRPEPQSVELGDPFSAVNSEVDQLIEYMTVHAESYRS"}, "B4": {"name": "PafA site 2 triple alanine variant (R137A/R207A/R218A) (enzyme)", "chain": "STVESALTRRIMGIETEYGLTFVDGDSKKLRPDEIARRMFRPIVEKYSSSNIFIPNGSRLYLDVGSHPEYATAECDNLTQLINFEKAGDVIADRMAVDAEESLAREDIAGQVYLFKNNVDSVGNSYGCHENYLVGASMPLKALGKRLMPFLITRQLICGAGRIHHPNPLDRGESFPLGYCISQRSDHVWEGVSSATTRSRPIINTADEPHADSHSYARLHVIVGDANMAEPSIALKVGSTLLVLEMIEADFGLPSLELANDIASIREISRDATGSTLLSLKDGTTMTALQIQQVVFEHASRWLEQRPEPEFSGTSNTEMARVLDLWGRMLKAIESGDFSEVDTEIDWVIKKKLIDRFIQRGNLGLDDPKLAQVDLTYHDIRPGRGLFSVLQSRGMIKRWTTDEAILAAVDTAPDTTRAHLRGRILKAADTLGVPVTVDWMRHKVNRPEPQSVELGDPFSAVNSEVDQLIEYMTVHAESYRS"}, "B5": {"name": "PafA R207A (enzyme)", "chain": "STVESALTRRIMGIETEYGLTFVDGDSKKLRPDEIARRMFRPIVEKYSSSNIFIPNGSRLYLDVGSHPEYATAECDNLTQLINFEKAGDVIADRMAVDAEESLAREDIAGQVYLFKNNVDSVGNSYGCHENYLVGRSMPLKALGKRLMPFLITRQLICGAGRIHHPNPLDRGESFPLGYCISQRSDHVWEGVSSATTRSRPIINTADEPHADSHSYRRLHVIVGDANMAEPSIALKVGSTLLVLEMIEADFGLPSLELANDIASIREISRDATGSTLLSLKDGTTMTALQIQQVVFEHASRWLEQRPEPEFSGTSNTEMARVLDLWGRMLKAIESGDFSEVDTEIDWVIKKKLIDRFIQRGNLGLDDPKLAQVDLTYHDIRPGRGLFSVLQSRGMIKRWTTDEAILAAVDTAPDTTRAHLRGRILKAADTLGVPVTVDWMRHKVNRPEPQSVELGDPFSAVNSEVDQLIEYMTVHAESYRS"}, "B6": {"name": "PafA R137A (enzyme)", "chain": "STVESALTRRIMGIETEYGLTFVDGDSKKLRPDEIARRMFRPIVEKYSSSNIFIPNGSRLYLDVGSHPEYATAECDNLTQLINFEKAGDVIADRMAVDAEESLAREDIAGQVYLFKNNVDSVGNSYGCHENYLVGASMPLKALGKRLMPFLITRQLICGAGRIHHPNPLDRGESFPLGYCISQRSDHVWEGVSSATTRSRPIINTRDEPHADSHSYRRLHVIVGDANMAEPSIALKVGSTLLVLEMIEADFGLPSLELANDIASIREISRDATGSTLLSLKDGTTMTALQIQQVVFEHASRWLEQRPEPEFSGTSNTEMARVLDLWGRMLKAIESGDFSEVDTEIDWVIKKKLIDRFIQRGNLGLDDPKLAQVDLTYHDIRPGRGLFSVLQSRGMIKRWTTDEAILAAVDTAPDTTRAHLRGRILKAADTLGVPVTVDWMRHKVNRPEPQSVELGDPFSAVNSEVDQLIEYMTVHAESYRS"}, "B7": {"name": "PafA R218A (enzyme)", "chain": "STVESALTRRIMGIETEYGLTFVDGDSKKLRPDEIARRMFRPIVEKYSSSNIFIPNGSRLYLDVGSHPEYATAECDNLTQLINFEKAGDVIADRMAVDAEESLAREDIAGQVYLFKNNVDSVGNSYGCHENYLVGRSMPLKALGKRLMPFLITRQLICGAGRIHHPNPLDRGESFPLGYCISQRSDHVWEGVSSATTRSRPIINTRDEPHADSHSYARLHVIVGDANMAEPSIALKVGSTLLVLEMIEADFGLPSLELANDIASIREISRDATGSTLLSLKDGTTMTALQIQQVVFEHASRWLEQRPEPEFSGTSNTEMARVLDLWGRMLKAIESGDFSEVDTEIDWVIKKKLIDRFIQRGNLGLDDPKLAQVDLTYHDIRPGRGLFSVLQSRGMIKRWTTDEAILAAVDTAPDTTRAHLRGRILKAADTLGVPVTVDWMRHKVNRPEPQSVELGDPFSAVNSEVDQLIEYMTVHAESYRS"}, "B8": {"name": "PafA R137A, R218A (enzyme)", "chain": "STVESALTRRIMGIETEYGLTFVDGDSKKLRPDEIARRMFRPIVEKYSSSNIFIPNGSRLYLDVGSHPEYATAECDNLTQLINFEKAGDVIADRMAVDAEESLAREDIAGQVYLFKNNVDSVGNSYGCHENYLVGASMPLKALGKRLMPFLITRQLICGAGRIHHPNPLDRGESFPLGYCISQRSDHVWEGVSSATTRSRPIINTRDEPHADSHSYARLHVIVGDANMAEPSIALKVGSTLLVLEMIEADFGLPSLELANDIASIREISRDATGSTLLSLKDGTTMTALQIQQVVFEHASRWLEQRPEPEFSGTSNTEMARVLDLWGRMLKAIESGDFSEVDTEIDWVIKKKLIDRFIQRGNLGLDDPKLAQVDLTYHDIRPGRGLFSVLQSRGMIKRWTTDEAILAAVDTAPDTTRAHLRGRILKAADTLGVPVTVDWMRHKVNRPEPQSVELGDPFSAVNSEVDQLIEYMTVHAESYRS"}, "B9": {"name": "PafA R442A (enzyme)", "chain": "STVESALTRRIMGIETEYGLTFVDGDSKKLRPDEIARRMFRPIVEKYSSSNIFIPNGSRLYLDVGSHPEYATAECDNLTQLINFEKAGDVIADRMAVDAEESLAREDIAGQVYLFKNNVDSVGNSYGCHENYLVGRSMPLKALGKRLMPFLITRQLICGAGRIHHPNPLDRGESFPLGYCISQRSDHVWEGVSSATTRSRPIINTRDEPHADSHSYRRLHVIVGDANMAEPSIALKVGSTLLVLEMIEADFGLPSLELANDIASIREISRDATGSTLLSLKDGTTMTALQIQQVVFEHASRWLEQRPEPEFSGTSNTEMARVLDLWGRMLKAIESGDFSEVDTEIDWVIKKKLIDRFIQRGNLGLDDPKLAQVDLTYHDIRPGRGLFSVLQSRGMIKRWTTDEAILAAVDTAPDTTRAHLRGRILKAADTLGVPVTVDWMAHKVNRPEPQSVELGDPFSAVNSEVDQLIEYMTVHAESYRS"}}, "key": {"[1]": {"biological_target": "MtbFabD3KR-Strep (malonyl CoA-acyl carrier protein transacylase variant that lacks secondary pupylation sites) (Mycobacterium tuberculosis) (UniProt P9WNG5)"}, "[2]": {"biological_target": "MtbPanB-Strep (ketopantoate hydroxymethyltransferase) (Mycobacterium tuberculosis) (UniProt P9WIL7)"}, "[3]": {"biological_target": "MtbPanB-Strep (ketopantoate hydroxymethyltransferase) (Mycobacterium tuberculosis) (UniProt P9WIL7)", "remark": "listed apart in the source"}}, "note": "Where two headings read alike, the source gives them in different places."}
{"binder": "B1", "values": [{"measurement": "App. initial pupylation rate (in vitro pupylation of FabD, SDS-PAGE densitometry)", "setting": "[1]", "result": 10.4, "unit": "h⁻¹"}]}
{"binder": "B2", "values": [{"measurement": "App. initial pupylation rate (in vitro pupylation of FabD, SDS-PAGE densitometry)", "setting": "[1]", "result": 2.65, "unit": "h⁻¹"}]}
{"binder": "B3", "values": [{"measurement": "App. initial pupylation rate (in vitro pupylation of FabD, SDS-PAGE densitometry)", "setting": "[1]", "result": 2.64, "unit": "h⁻¹"}]}
{"binder": "B4", "values": [{"measurement": "in vitro pupylation of PanB, reduction against PafA (gel densitometry)", "setting": "[2]", "result": 70, "unit": "% reduction"}]}
{"binder": "B5", "values": [{"measurement": "in vitro pupylation of PanB, reduction against PafA (gel densitometry)", "setting": "[3]", "result": 50, "unit": "% reduction"}]}
{"binder": "B6", "values": [{"measurement": "App. initial pupylation rate (in vitro pupylation of FabD, SDS-PAGE densitometry)", "setting": "[1]", "result": 3.1, "unit": "h⁻¹"}]}
{"binder": "B7", "values": [{"measurement": "App. initial pupylation rate (in vitro pupylation of FabD, SDS-PAGE densitometry)", "setting": "[1]", "result": 5.05, "unit": "h⁻¹"}]}
{"binder": "B8", "values": [{"measurement": "App. initial pupylation rate (in vitro pupylation of FabD, SDS-PAGE densitometry)", "setting": "[1]", "result": 0.17, "unit": "h⁻¹"}]}
{"binder": "B9", "values": [{"measurement": "App. initial pupylation rate (in vitro pupylation of FabD, SDS-PAGE densitometry)", "setting": "[1]", "result": 2.87, "unit": "h⁻¹"}]}
